Source: the domain aggregation screens of Martell et al. (2025)

Experiment: soluble fraction after stress (log2 fold change); higher = more stays soluble; pooled small domains, quantitative proteomics
Details: stress: 75 degC
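Also: 20 min heating vs room temperature control held 20 min.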

Row | Sequence | soluble fraction (log2)
1 | HMNEYLPEAVQKLLEVMEYDIPYTSNELMERLGLKAKEGFRRNYLHPAMEMKLIQMTIPDKPNSRNQRYLR | -2.13
2 | HMNFHLEHHIAELLYRSIRGELSDFERQELNQWRSDSPMHETLFMRLQDDEYIDEELGVFIK | -2.76
3 | HMNFKNMIDSLSGILFKKDPSAAIIDIGGVRLKVFITVGSYEQLPAKGEQVEILTYLHVKEDILNLYG | -1.85
4 | HMNFMDGFQSFFQESGAMNRPMTADVVSYRLPDGTVQQGNSTMRGLMDQYLKSIGQSPTTGVP | 0.0171
5 | HMNFRESVLAVFENSKQKYLDFDEIAKRLGLTRGFDRQALASMLNELTRNDEIVFTKRNKYTLPEN | -0.524
6 | HMNGAVAEQARKQLMAALKASEFIAEEKLDEWLDALALPEDKRTAIVDAVDELDYEEAISELEN | 0.429
7 | HMNGDYFEYRYAVNGSRSTPPSLSKTSRNPSGWSTTVPTVGNLQYLWFTVAKINGETNSLIQNWSTPARQT | -1.88
8 | HMNGEAQTMYVTARTLNVRKGPGTSYAKAGTLSRGTAVQVVGFSGNWAKLSNGYYVSTSYLAKI | -4.25
9 | HMNGKWKLRIIKELLHSNIRFGQILKNIPDISPKVLSQQLKEMEEDGIIERIVISEMPPNVEYVLTDMGE | -1.66
10 | HMNGLNISYRMDGENVVETIVFPDATMIRTIAPNGVMTIKTIEDGSVSTSELKADYKLYKKIYESQY | -0.748
11 | HMNGSVLVTGGSVWIRAGASKETDGLGIVHKGDVLKRSGSDASGWRGVVYEGQNAFISAKYSSI | -0.89
12 | HMNGTEAIRRYIDQFASKHATTPRMLKLNERKQLIQELKNNGLLEIKKAVETVAQHLGISRASAYLYVKE | -1.52
13 | HMNGVPDMSPVPEGARNSTLHAWAFGRLKNHPDNETGIREDLFRRGHASGLQDAELDQIWKSIKRTL | 0.00545
14 | HMNGVSNETLIQKSALYEELNQPDLALKMINTALKKDSVNIEILHRLVTLLMSQEKNEEAILYNQKIIDH | 0.0902
15 | HMNHSITLTERKNLLITGVKKIENFDKEEFLIETTMGFLVVKGDGLELIKLDTISGNVSIKGIVNGFTYID | 0.15
16 | HMNIAAVIGQTGVLQDDLKAGEQGTVKADNKLWTAVLAEGEEAVKKEERVDIVAVEGVKLIVRRNI | 0.663
17 | HMNIDEIFLTKNEIYFSFEYQKKSQLDRYSKIISLDHRIDKNTAYAYANKKQFLNFINLNIDYKIIDNSF | -2.87
18 | HMNIDEIIGKKAVVIESIDNLQGTGKVRYQGMEWTARAEEENDRIEKDAEVEIIAVKGVKLIVKMK | -0.384
19 | HMNIDNTWQPSEDVVEILTRSGINEDFINELIPEFIVYWTERPGTLVSYNSKFIEHVRLKWAQHSAEI | -0.375
20 | HMNIDVAAEKQQLGPNADQIVKGTVTWMQGLVAKGIWSETDFEEGKIFTATADGINAINKIRRYYGEQT | 0.0956
21 | HMNIEDFKDKVKELKQYTYQELVEDVKLKTDRADVILPASKIYLEAMQQAKVDSIIVPKVGLAEGVAR | -0.012
22 | HMNIEEQVVAEVLVKDFMKQLTPRDIHILELRKNGYTYQEIAGQLGYHTHSAVKKRVDRLAEQWLAYTQGH | -2.26
23 | HMNIFAHQIGKLRTERHLSQTDVAKRLYVSRQAVSKWENGDAEPSLDNLIALAKLFNVSLDNLITGQ | -1.78

Row | Sequence | soluble fraction (log2)
24 | HMNIGVEQIEQMERGALITLWQELIDKPLPRHMSIVFLRQVLAFEVQSKQNGGLPRGFITLLNKQAD | -0.826
25 | HMNIKITKSKNSEHYSIIYNTKINGKRTSKIYENIGNFEKLKLRAGEQEPIEWLKNYVSELNKKQKEDT | 0.11
26 | HMNIKYDFPTNSPLEMMRNLFDSNSQIINDLKDGFAMANSLNEQGLANFFAERIDKHQFWSWQLSASL | -0.201
27 | HMNILDPTVMKNILDKNHEEFIAIYESAPLGQKTIINSMVFDKRLNGENVDANILMYLQNKTNIDYINIEP | -0.536
28 | HMNILNYIIENENQEVRVDKFLSDTIEDMSRSSVASIIEDGGLLVNDKLQNKKYKLKIGDKVQFTVPDPV | 0.0982
29 | HMNILVAISDTGEIWINKRRVDARAVQANIERLHAENPQGTVVIQADKQATTETLIKVMDASRAAGVFDVS | -0.691
30 | HMNINLDINTYTVKELEKLLKLEVPYSDNNVFEKKNLMVKMIQTSTIAETKKEELYIFLDNIYNRLTNNLE | -1.59
31 | HMNISLGALVTITDQKGRSHTVTLESGKQFFTNHGSINHDEIIKAGEGGVVASSSGMLYTIFTP | -0.924
32 | HMNISRESLIGQILATLNKNPEEGFNYKQIAKRLNITDSPGRQMISDLLRELSKHGSLQEISHGKYKIKV | -0.237
33 | HMNITHEINVKSKSKIDFLENNKNLAQFFLTKNPNQFNYNLVFSDKSELNIIKEKIESHKDIEDIDIRYG | -0.0863
34 | HMNIVINVDTPTFEQMKATYQAPGTLPAGASFHAKLKGVTVTGYTKSHKVMFQGALANQEAARWQ | -1.88
35 | HMNIYFNIEDAVANAVVENGKMSAAIYEKNVDTGEVAKLAEVSMPVMGGNINITKTLLTKALISQLP | -0.71
36 | HMNKAYLTVADMKKDKSLKNGDVVRTLGYYGYNDGDGAVYQIKDSHPEDYHIRLDNGLDAEQINY | 0.185
37 | HMNKEHINLDSSKFLSLLNKTKISMSNDETRHYLNGIYIHPTVSNKSSYLTGVATDSHRLSSSSIPVD | -0.366
38 | HMNKMIIELGEKLKALRTENHLRQDQVARLVNVEKSSISMYETGMRQPSYTTLVRLADVFNVTTDYLLGRK | -2.37
39 | HMNKPTSMYKLRLLLKHYHAGASKRWMADVLDISRSTLNVYLARIESLNLAFEEWEALSDLEVSRLLINP | -3.22
40 | HMNKVAQFYRELVSTLSERLRNGERDIDALVEQARVRISQSGELTQSEIENVIRAVRRDLEEFALSYEE | -0.0274
41 | HMNLAISAYQQLKSDIIRGVYAPGEKLLMSRLKVRYGLGIGPMREALSQLVSEHLVTAASQRGYRVAGM | -1.79
42 | HMNLAPLLTEYVQINFRRASEMKTYLEQANLISERGFLLADDQTNILMVRETGASIEEIRRTLNRF | -1.92
43 | HMNLFKAPMPGLIRTIVVAEGQEVKKGDVILILEAMKMENALKSPADLVVKSIKVQQGQAVEKNQLLIEF | -2.44
44 | HMNLGNLLKIYRKNSLLTQQQVADALNINRTTYTYYETGKTEPSIDTLHKLIKIFGITYDDLL | -2.88
45 | HMNLKDINLNVRHYKIIDFVREHGYASIETLTRQFGVSAQTVRRDIIYLDNQAVLKRHHGGVGTLPG | -1.97
46 | HMNLPTSGVDALTPAERRVARMAGDGQSNREIAQTLFVTRKTVEIHLTSVYRKLGIASRAELSARL | -2.68

Row | Sequence | soluble fraction (log2)
47 | HMNLQGIISQKAIVTQTIEPYETGVAKLNGEEWTAMSKDETRIEAGKLVEVVAIEGVKLIVKEVS | -0.311
48 | HMNLVELKHAEEFNTLIIQDIGGRMKPAHTLASELVRKVFHNDDFNGIDPRKVFLSIIENSKVWFNVPFI | 0.0116
49 | HMNLYENLATHVKNAIRQGVYQPGDRLPSVRRLSEQHRVSQNTAVSAYRLLESHGWLEARPQSGFFARHP | -1.42
50 | HMNLYERFPIHELWKETFNETLDEEEHITFITSEFKPENIVLGQGFIAAPSKKDAVDWLKVIRTVLIFYDS | -2.37
51 | HMNMANFARIRLILELHDRGMSQDEISRSRHMSRSTITTVLRTARKKGITYAGIRKLDDAALQKLFFPDR | -4.02
52 | HMNMDLGHSISKLRTDANLTQEKFAQILNVSRQTVQKWEYGEALPDIHNIIKIAKFFNISLDALVLRS | -3.02
53 | HMNMIGDVIRNLRTVSSMTQTELGQRMGVIKQTISNWEKNISTPSIDAIVKLSSIFNVPTDYLL | -1.22
54 | HMNMMESNLFAVYDNDDIVKTLRQGAMEIDSLIRLMGKSSAEVLEKLTTMELQGIITRSGNIIALNN | -0.427
55 | HMNMNDIKFGKYLKRVRKKYNFSKEYVANILKVKESLVSDWESGRLTLNDEYMEKLSLFYGVNLYKK | -1.57
56 | HMNMPDVTVEWVKEQQAKFGLTDSDLAKSVNIDNANLARIFNQRGLTKIHKALFYYFFRAYGLQ | -3.33
57 | HMNMRVLSEQPNKKSYQDGNLRLKVFGASFKKSDILNEALNQARVEETGLQIPKLLEVKQIDGQWTIVTE | -0.0583
58 | HMNMVSGHLQVKKGYYYAVLSFYDSKNKRHVKYISTGLPEKGNKRKAEAELVKIRNAFEPPAE | -0.516
59 | HMNNESEGAIMLRQYSSLSAYLTKYNIDVNSKKAQQYASSLKLAQEKGSAEGQKYLSSISSELDD | -0.205
60 | HMNNIIEQIKADIKKLEEKLDKSSENALNKLEKDYSSLSTESKKKLDDAGYGARIKALRVKFAALSTQ | -0.0452
61 | HMNNISKKIKELREQNNITQNKLANDLFIKQQTVAQWENGSRALKADSIISLAKYFNVSTDYLLGLTEN | -0.898
62 | HMNNLKTKELSKIGYTNDKARSLVISIIPKHFKYHSKSEIIELLTNIKNKPEDYVSDEILGKIAETFMEKI | -1.23
63 | HMNNLSEELNVTFPRTRDQLLNILHYVQHKYGYISKVSMQEIGNHIKMPVSEIYGTVTSYSEFKI | -2.25
64 | HMNNLTEEAINHLVLEVKNVLLTDALFLGKATDSQLMLRIKETIDQRNGQYNIGMNDRERIARRVFARLR | -2.19
65 | HMNNLVGKTKVLKSNTNIYAYKTMSGKFYSYLPNTRVRVLQDLGYINYIEVIATKRRGYVYENVY | -0.234
66 | HMNNNIFVYPNPSINYINIDSDEEIWKLEIIQMSGEKINILPFSKRIDISFLSKGLYILNFNNYYIKFIK | -0.136
67 | HMNNQIFGLKFRQLRKQQHITLAKAAAGITSRQSLGNWETGKGELAFEKVLLLLKKINVQPIDFLESSIS | -3.9
68 | HMNNQILYERLRDLRERNHFTQAFVSSKLNIGRATYSNYERGKRTPSLDVIMDLASFYKVPFTYF | 0.0974
69 | HMNNQMTFSKFLNEVDAGRVVEVEIQGNNIKGVLADGNRFNTFSPNYPNLVEKLSDKGVSITAAPK | 0.174
